T1: human gamma (γ) common chain expressed on CHO cells (human, UniProt P31785 23-369)
T1 construct: whole, on cells; Control protein; also called human IL-2R-γ common subunit; human γ-common
T1 sequence (looked up): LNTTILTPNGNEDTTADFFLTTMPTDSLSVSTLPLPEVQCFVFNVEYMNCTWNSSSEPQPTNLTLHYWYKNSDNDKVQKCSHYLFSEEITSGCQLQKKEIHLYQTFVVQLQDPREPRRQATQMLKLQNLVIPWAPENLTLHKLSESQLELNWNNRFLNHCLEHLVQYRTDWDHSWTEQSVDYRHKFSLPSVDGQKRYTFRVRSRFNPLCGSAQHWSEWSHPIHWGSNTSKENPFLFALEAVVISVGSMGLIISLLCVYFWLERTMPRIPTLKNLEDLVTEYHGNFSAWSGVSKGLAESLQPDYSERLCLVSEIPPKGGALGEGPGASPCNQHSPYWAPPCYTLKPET

T2: human IL-2Rβ (human, UniProt P14784 27-239)
T2 sequence (looked up): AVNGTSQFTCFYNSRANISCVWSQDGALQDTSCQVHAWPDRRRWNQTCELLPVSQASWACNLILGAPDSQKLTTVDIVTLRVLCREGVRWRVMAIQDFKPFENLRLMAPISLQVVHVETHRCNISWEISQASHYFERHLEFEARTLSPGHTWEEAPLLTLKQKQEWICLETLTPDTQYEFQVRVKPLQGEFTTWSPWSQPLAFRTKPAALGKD

B1: AbG (antibody, IgG1, V domains shown)
VH: QVQLQESGPGLVKPSETLSLTCAVSGYSISSGYYWGWIRQPPGKGLEWIGSISHTGNTYYNPPLKSRVTISVDTSKNQFSLKLSSVTAADTAVYYCARGGGISRPEYWGQGTLVTVSS
VL: SSELTQDPAVSVALGQTVRITCQGDSLRTYYASWYQQKPGQAPVLVIYGKHKRPSGIPDRFSGSSSGNTASLTITGAQAEDEADYYCVTRSVKGNPHVLFGGGTQLTVL
notes: As for AbA: IgG1/lambda, CDR3 graft, residue limits derived; also called VHP/VL18
B2: AbI (antibody, IgG1, V domains shown)
VH: B1 VH
VL: B1 VL with V88I, T89A, V92N
notes: As for AbA: IgG1/lambda, CDR3 graft, residue limits derived; also called VHP/VL24
B3: AbF (antibody, IgG1, V domains shown)
VH: B1 VH
VL: B1 VL with V88S, V92R
notes: As for AbA: IgG1/lambda, CDR3 graft, residue limits derived; also called VHP/VL17
B4: AbL (antibody, IgG1, V domains shown)
VH: B1 VH with G99F, G100M, I102F, S103G
VL: B1 VL with S91N, V92R, K93Y
notes: As for AbA: IgG1/lambda, CDR3 graft, residue limits derived; also called VH3/VL13
B5: AbE (antibody, IgG1, V domains shown)
VH: B1 VH
VL: B1 VL with V88M, T89A, V92R
notes: As for AbA: IgG1/lambda, CDR3 graft, residue limits derived; also called VHP/VL14
B6: AbK (antibody, IgG1, V domains shown)
VH: B1 VH with G99F, G100M, I102F, S103G
VL: B1 VL with T89S, S91A, K93V
notes: As for AbA: IgG1/lambda, CDR3 graft, residue limits derived; also called VH3/VL3

Substitutions are numbered along the chain they refer to.

T3 sequence (Q9HBE5 20-538 limits assumed): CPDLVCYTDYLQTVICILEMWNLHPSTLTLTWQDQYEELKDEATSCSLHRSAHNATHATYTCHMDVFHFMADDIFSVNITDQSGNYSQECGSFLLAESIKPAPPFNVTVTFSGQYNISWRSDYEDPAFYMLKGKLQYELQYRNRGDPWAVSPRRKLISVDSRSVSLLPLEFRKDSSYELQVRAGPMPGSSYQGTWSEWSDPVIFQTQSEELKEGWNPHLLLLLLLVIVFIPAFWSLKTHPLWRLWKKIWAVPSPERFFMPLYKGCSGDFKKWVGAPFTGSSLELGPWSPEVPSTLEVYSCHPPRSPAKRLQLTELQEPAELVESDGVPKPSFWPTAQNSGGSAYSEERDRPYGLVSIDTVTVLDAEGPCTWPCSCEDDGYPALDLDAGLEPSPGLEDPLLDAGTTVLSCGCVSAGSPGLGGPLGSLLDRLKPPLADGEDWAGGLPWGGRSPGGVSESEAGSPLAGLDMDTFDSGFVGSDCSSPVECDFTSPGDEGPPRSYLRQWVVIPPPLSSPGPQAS

The first test has as its target T3, human IL-21R expressed on cells (human, UniProt Q9HBE5 20-538).
T3 construct: also called human IL-21R-BaF3; human IL-21R-TF1
Briefly: cell-based ELISA on CHO cells transiently expressing human IL-21R; HRP anti-human IgG, A450. The procedure: (§1) FIG. 6(a-l) depicts the binding of 21 anti-IL-21R IgGs to CHO cells transiently expressing human IL-21R (FIGS. 6a-c), rat IL-21R (FIGS. 6d-f), cynomolgus monkey IL-21R (FIGS. 6g-i), and human gamma common chain (FIGS. 6j-1). CHO cells were transiently transfected with IL-21R or the control gamma common chain, and binding was detected with HRP-conjugated anti-human IgG in a cell-based ELISA.
(§2) A subset of binding proteins was tested for binding to rat, cynomolgus monkey, human IL-21R, or human IL-2R-γ common subunit expressed transiently on the surfaces of CHO-PA-Dukx cells. Cells were transfected 48 hr prior to the assay. On the day of the assay, cells were washed gently 5× in PBS containing 0.9 mM CaCl₂ and 0.45 mM MgCl₂ (PBS/CaMg) on an automated plate washer (Titertek, Huntsville, Ala.), and blocked for 1 hr at RT in PBS/CaMg/5% nonfat dry milk. Conditioned media from transiently expressed anti-IL-21R IgGs were serially diluted in blocking buffer and added to the cells in the blocked plates for 1 hr at RT. Cells were washed 5× with PBS/CaMg and then incubated with horseradish peroxidase-conjugated anti-human IgG for 1 hr at RT. Cells were then washed 10× in PBS/CaMg and all of the wash buffer was removed. Cells were incubated with 100 μl TMB until the color reaction reached saturation, stopped with 100 μl of 0.18 M H₂SO₄, and read at A450 on a Perkin Elmer ENVISION™ plate reader.
The term EC50 (read off the curve) denotes the concentration needed to bring the measured effect to its halfway point. With B1, the “EC50 (read off the curve)” value was ~0.5 nM.
For B2, the “EC50 (read off the curve)” value was ~0.9 nM.
For B3, the concentration giving a half-maximal response (EC50 (read off the curve)) was ~0.5 nM.
The same measure, in the same setting: with B4 the figure was ~1 nM.

The next test addresses T4, rat IL-21R expressed on cells (rat).
T4 construct: whole, on cells
Briefly: cell-based ELISA on CHO cells transiently expressing rat IL-21R; HRP anti-human IgG, A450. The procedure: as §1, §2
Consider B1, for which the “EC50 (read off the curve)” value was ~0.9 nM.
On the same count and under the same terms, with B5 the figure was ~0.8 nM.
Same read-out and setting: as for B6, the figure is ~1 nM; as for B3, ~0.7 nM.

For another test, the target named is T3, human IL-21R expressed on cells. Briefly: cell ELISA, CHO cells. The protocol:
as §2
Consider B1, for which the “A450 (13 nM Ab)” value stood at 1.35 A450.
Still for that read-out and setting: with B2 the figure was 1.24 A450.
Same read-out and setting: with B5 the figure was 1.26 A450; with B6, 1.36 A450; with B3, 1.35 A450.
Still for that read-out and setting: as for B4, the figure is 1.45 A450.

Another test addresses T1, human gamma (γ) common chain expressed …. Briefly: cell ELISA, CHO cells. The procedure:
as §2
On the technique in general: In an ELISA, binding on a coated surface is turned into a signal by an enzyme label.
With B1, the “A450 (13 nM Ab)” value was 0.108 A450.
Still for that read-out and setting: as for B2, the figure is 0.107 A450; as for B6, 0.108 A450.

Another test deals with T5, cynomolgus monkey IL-21R expressed on cells (cynomolgus monkey, UniProt G7Q0S8 41-559).
T5 construct: whole, on cells
Briefly: cell ELISA, CHO cells. The protocol: as §2
Turning to B1, the “A450 (13 nM Ab)” value stood at 1.3 A450.
On the same count and under the same terms, with B2 the figure was 1.21 A450.
The same measure, in the same setting: as for B5, the figure is 1.42 A450.
B6: the “A450 (13 nM Ab)” value was 1.34 A450.
Still for that read-out and setting: with B3 the figure was 1.46 A450.
Still for that read-out and setting: as for B4, the figure is 1.51 A450.

In another test the target is T4, rat IL-21R expressed on cells. Briefly: cell ELISA, CHO cells. The protocol:
as §2
Take B1: the “A450 (13 nM Ab)” value came out at 1.11 A450.
On the same count and under the same terms, as for B2, the figure is 1.09 A450; as for B5, 1.11 A450.
Consider B6, for which the “A450 (13 nM Ab)” value turned out to be 1.18 A450.
Same read-out and setting: with B3 the figure was 1 A450; with B4, 1.26 A450.

The next test deals with T3, human IL-21R expressed on cells. Briefly: cell-based or functional assay.
Take B1: the “Human IL-21R-BaF3 Proliferation IC50” value was 0.77 nM and the “Human IL-21R-TF1 Proliferation IC50” value is 3.84 nM.
With B2, the “Human IL-21R-BaF3 Proliferation IC50” value was 1 nM and the “Human IL-21R-TF1 Proliferation IC50” value was 3.8 nM.
The like results for B5 were, in that order, 0.56 nM and 2.28 nM.
The like results for B6 were, in that order, 0.98 nM and 4 nM.
The matching figures for B3: 0.54 nM and 2.41 nM.
Turning to B4, the “Human IL-21R-BaF3 Proliferation IC50” value amounted to 0.68 nM and the “Human IL-21R-TF1 Proliferation IC50” value is 4.25 nM.

Another test deals with murine IL-21R expressed on cells (murine, UniProt Q9JHX3 20-529). Briefly: cell-based or functional assay.
Chain of murine IL-21R expressed on cells (Q9JHX3 20-529 limits assumed): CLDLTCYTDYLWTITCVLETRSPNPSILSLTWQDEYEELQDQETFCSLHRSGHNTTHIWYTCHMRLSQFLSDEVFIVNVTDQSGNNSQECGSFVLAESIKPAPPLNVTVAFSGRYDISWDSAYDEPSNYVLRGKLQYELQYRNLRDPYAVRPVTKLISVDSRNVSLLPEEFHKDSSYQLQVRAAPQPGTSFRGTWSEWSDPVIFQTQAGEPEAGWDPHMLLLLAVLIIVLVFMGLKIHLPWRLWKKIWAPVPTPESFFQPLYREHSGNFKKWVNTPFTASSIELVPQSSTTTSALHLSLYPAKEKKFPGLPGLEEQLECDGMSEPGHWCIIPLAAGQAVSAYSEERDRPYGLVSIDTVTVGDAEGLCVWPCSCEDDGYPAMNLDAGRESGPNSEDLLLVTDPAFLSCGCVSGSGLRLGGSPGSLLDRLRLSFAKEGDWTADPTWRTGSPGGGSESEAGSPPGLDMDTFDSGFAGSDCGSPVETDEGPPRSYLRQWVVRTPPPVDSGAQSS
As for B1, the “Murine IL-21R-BaF3 Proliferation IC50” value worked out at 0.07 nM.
Turning to B2, the “Murine IL-21R-BaF3 Proliferation IC50” value is 0.224 nM.
Same read-out and setting: as for B5, the figure is 0.04 nM; as for B6, 0.079 nM.
Still for that read-out and setting: with B3 the figure was 0.304 nM; with B4, 0.227 nM.

A further test deals with T1, human gamma (γ) common chain expressed …. Briefly: cell-based ELISA on CHO cells transiently expressing human gamma common chain; HRP anti-human IgG, A450. The procedure:
as §1, §2
As to B1, the binding result is “no binding (tested: 40 nM)”.
On the same count and under the same terms, as for B2, the entry is “no binding (tested: 13 nM)”; as for B6, “no binding (tested: 40 nM)”.

The target of a further test is T6, human soluble IL-4R (human, UniProt P24394 26-232, limits assumed).
T6 construct: also called human sIL-4R
Briefly: SPR, Ab captured. The procedure:
(§3) The specificity of binding of a subset of transiently expressed anti-IL-21R binding proteins (here antibodies) was tested on a BIACORE™ 2000 surface plasmon resonance instrument. Anti-human-IgG, anti-murine immunoglobulin antibodies, and murine IL-21R-H/F were immobilized onto a research-grade carboxymethyl-dextran chip (CM5) using standard amine coupling. The sensor chip surface was activated with EDC/NHS for 7 min at a flow rate of 20 μl/min. The first flow cell was used as reference surface to correct for bulk refractive index, matrix effects, and nonspecific binding. […] Remaining activated groups were blocked with 1.0 M ethanolamine (pH 8.0). The molecular weights of the anti-human IgG and the anti-murine IgG were both 150 kD, and the molecular weight of the IL-21R monomer was 27 kD.
(§4) Conditioned media containing anti-IL-21R antibodies and antibody controls (murine anti-human IL-2Rβ and murine anti-human IL-4R(R&D Systems, Minneapolis, Minn.); human anti-human IL-13 (Wyeth, Cambridge, Mass.)) were diluted in HBS/EP buffer supplemented with 0.2% bovine serum and injected onto all four flow cells of the BIACORE™ chip, capturing 500-700 (RU) of antibody on the species-appropriate capture antibody. Following a 5 sec washing period, 50 nM solutions of a positive control protein (murine IL-21R-H/F), two human proteins related to IL-21R (human IL-2Rβ and human sIL-4R(R&D Systems)), or an unrelated His/FLAG-tagged protein (human IL-13-H/F) were injected over the captured antibodies on the chip. The association and dissociation phases were monitored for 120 and 180 sec, respectively, followed by two 5 μl injections of glycine (pH 1.5) to regenerate a fully active capturing surface. All binding experiments were done at 25° C. in HBS/EP buffer. Blank and buffer effects were subtracted for each sensorgram using double referencing.
In general terms: SPR reads the build-up and loss of mass on a sensor chip optically.
For the molecule B1, the binding result is listed as “no binding (tested: 50 nM)”.
On the same count and under the same terms, with B2 the entry was “no binding (tested: 50 nM)”; with B5, “no binding (tested: 50 nM)”.
Turning to B6, the binding result is recorded as “no binding (tested: 50 nM)”.
The same measure, in the same setting: with B3 the entry was “no binding (tested: 50 nM)”.
On the same count and under the same terms, as for B4, the entry is “no binding (tested: 50 nM)”.

Another test addresses T2, human IL-2Rβ. Briefly: SPR, Ab captured. The procedure:
as §3, §4
Turning to B1, the binding result is “no binding (tested: 50 nM)”.
In the case of B2, the binding result is reported as “no binding (tested: 50 nM)”.
The same measure, in the same setting: with B5 the entry was “no binding (tested: 50 nM)”; with B6, “no binding (tested: 50 nM)”; with B3, “no binding (tested: 50 nM)”.
Still for that read-out and setting: as for B4, the entry is “no binding (tested: 50 nM)”.

The target of another test is T7, human IL-13-His/FLAG (human, UniProt P35225 35-146, limits assumed).
T7 construct: Unrelated His/FLAG-tagged control; also called human IL-13-H/F
T7 sequence (P35225 35-146 limits assumed): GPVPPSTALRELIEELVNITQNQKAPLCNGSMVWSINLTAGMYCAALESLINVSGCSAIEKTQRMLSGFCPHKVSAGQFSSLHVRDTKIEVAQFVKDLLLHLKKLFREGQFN
Briefly: SPR, Ab captured. The protocol: as §3, §4
For the molecule B1, the binding result is “no binding (tested: 50 nM)”.
Take B2: the binding result is given as “no binding (tested: 50 nM)”.
The same measure, in the same setting: as for B5, the entry is “no binding (tested: 50 nM)”.
On to B6, for which the binding result is “no binding (tested: 50 nM)”.
On the same count and under the same terms, with B3 the entry was “no binding (tested: 50 nM)”.
Same read-out and setting: as for B4, the entry is “no binding (tested: 50 nM)”.

A further test has as its target T5, cynomolgus monkey IL-21R expressed on …. Briefly: cell-based ELISA on CHO cells transiently expressing cynomolgus monkey IL-21R; HRP anti-human IgG, A450. The procedure: as §1, §2
As for B1, the “EC50 (read off the curve)” value is ~0.5 nM.
The same measure, in the same setting: as for B2, the figure is ~0.4 nM.
The same measure, in the same setting: with B6 the figure was ~2 nM; with B3, ~0.5 nM.
The same measure, in the same setting: as for B4, the figure is ~0.9 nM.
